Paper PMC4318798 (Nature structural & molecular biology, 2015)
Like-named read-outs stand apart in the source and are kept apart here.

How the values were obtained:
SEC-MALS [1] = target: the molecule itself; experiment: SEC-MALS
SEC-MALS [2] = target: the molecule itself; experiment: SEC-MALS; remark: listed apart in the source
SEC-MALS [3] = target: the molecule itself; experiment: SEC-MALS; remark: listed apart in the source
Ctp1 1-150 = target: T1, Ctp1 1-150 (Schizosaccharomyces pombe, UniProt O74986 1-150); experiment: EMSA
T1 sequence: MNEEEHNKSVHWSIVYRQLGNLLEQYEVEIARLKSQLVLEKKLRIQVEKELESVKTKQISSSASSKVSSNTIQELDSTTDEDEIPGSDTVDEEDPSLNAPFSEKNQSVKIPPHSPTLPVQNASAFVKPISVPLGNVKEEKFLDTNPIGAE

Ctp1 151-294 = target: T2, Ctp1 151-294 (Schizosaccharomyces pombe, UniProt O74986 151-294); experiment: EMSA
T2 sequence: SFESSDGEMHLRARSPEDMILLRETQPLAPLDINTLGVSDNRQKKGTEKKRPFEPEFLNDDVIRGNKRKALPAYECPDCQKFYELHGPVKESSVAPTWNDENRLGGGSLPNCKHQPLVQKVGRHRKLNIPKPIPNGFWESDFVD

crystal structure = target: the molecule itself; experiment: crystal structure
Ctp1 61-294 = target: T3, Ctp1 61-294 (Schizosaccharomyces pombe, UniProt O74986 61-294); experiment: EMSA
T3 sequence: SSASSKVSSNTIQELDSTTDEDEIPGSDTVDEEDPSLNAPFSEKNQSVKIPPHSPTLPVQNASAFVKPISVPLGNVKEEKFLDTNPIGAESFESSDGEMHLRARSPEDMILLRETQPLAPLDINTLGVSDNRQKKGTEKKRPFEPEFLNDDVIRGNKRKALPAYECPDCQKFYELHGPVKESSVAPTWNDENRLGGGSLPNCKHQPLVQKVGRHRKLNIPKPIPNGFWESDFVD

Ctp1 WT = target: T4, Ctp1 WT (Schizosaccharomyces pombe, UniProt O74986 1-294); experiment: EMSA
T4 sequence: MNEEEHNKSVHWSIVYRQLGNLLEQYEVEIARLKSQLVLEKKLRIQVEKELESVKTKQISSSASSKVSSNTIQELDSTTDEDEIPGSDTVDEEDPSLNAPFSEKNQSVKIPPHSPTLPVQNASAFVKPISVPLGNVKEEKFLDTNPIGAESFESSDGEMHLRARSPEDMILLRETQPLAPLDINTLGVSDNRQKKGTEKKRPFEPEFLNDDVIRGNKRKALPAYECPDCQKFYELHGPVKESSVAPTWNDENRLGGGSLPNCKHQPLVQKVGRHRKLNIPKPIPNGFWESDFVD

Ctp1 K276A = target: T5, Ctp1 K276A (Schizosaccharomyces pombe, UniProt O74986 1-294, K276A); experiment: EMSA
T5 sequence: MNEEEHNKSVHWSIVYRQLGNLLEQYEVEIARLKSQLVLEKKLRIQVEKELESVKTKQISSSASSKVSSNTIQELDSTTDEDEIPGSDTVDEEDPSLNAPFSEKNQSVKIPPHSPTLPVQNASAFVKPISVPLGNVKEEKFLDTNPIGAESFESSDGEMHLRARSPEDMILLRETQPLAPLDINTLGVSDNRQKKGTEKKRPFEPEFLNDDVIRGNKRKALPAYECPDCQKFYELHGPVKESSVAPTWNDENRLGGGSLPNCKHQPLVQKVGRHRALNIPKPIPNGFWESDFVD

Ctp1 K231A = target: T6, Ctp1 K231A (Schizosaccharomyces pombe, UniProt O74986 1-294, K231A); experiment: EMSA
T6 sequence: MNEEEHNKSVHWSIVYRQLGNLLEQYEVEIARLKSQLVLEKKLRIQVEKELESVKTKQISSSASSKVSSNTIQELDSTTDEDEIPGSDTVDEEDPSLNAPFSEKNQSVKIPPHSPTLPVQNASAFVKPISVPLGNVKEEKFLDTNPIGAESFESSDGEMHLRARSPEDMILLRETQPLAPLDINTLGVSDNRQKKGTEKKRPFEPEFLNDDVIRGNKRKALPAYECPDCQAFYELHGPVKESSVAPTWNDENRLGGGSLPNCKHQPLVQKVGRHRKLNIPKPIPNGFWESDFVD

Ctp1 K219A = target: T7, Ctp1 K219A (Schizosaccharomyces pombe, UniProt O74986 1-294, K219A); experiment: EMSA
T7 sequence: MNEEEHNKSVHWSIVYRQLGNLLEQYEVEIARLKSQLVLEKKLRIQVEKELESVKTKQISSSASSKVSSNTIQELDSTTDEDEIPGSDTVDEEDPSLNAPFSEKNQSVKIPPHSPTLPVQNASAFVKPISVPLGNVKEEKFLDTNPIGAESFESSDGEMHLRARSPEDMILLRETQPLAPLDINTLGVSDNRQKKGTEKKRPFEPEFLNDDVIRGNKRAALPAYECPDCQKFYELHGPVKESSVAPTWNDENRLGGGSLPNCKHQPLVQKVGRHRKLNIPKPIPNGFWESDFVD

Ctp1 R275A = target: T8, Ctp1 R275A (Schizosaccharomyces pombe, UniProt O74986 1-294, R275A); experiment: EMSA
T8 sequence: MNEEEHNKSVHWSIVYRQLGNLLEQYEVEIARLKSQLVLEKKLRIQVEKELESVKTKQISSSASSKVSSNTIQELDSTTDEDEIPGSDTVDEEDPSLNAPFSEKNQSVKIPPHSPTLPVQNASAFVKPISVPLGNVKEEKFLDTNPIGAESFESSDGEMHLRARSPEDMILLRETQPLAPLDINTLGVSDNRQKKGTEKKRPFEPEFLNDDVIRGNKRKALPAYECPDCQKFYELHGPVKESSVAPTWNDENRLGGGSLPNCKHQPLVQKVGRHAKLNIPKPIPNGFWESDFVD

Ctp1 R273A = target: T9, Ctp1 R273A (Schizosaccharomyces pombe, UniProt O74986 1-294, R273A); experiment: EMSA
T9 sequence: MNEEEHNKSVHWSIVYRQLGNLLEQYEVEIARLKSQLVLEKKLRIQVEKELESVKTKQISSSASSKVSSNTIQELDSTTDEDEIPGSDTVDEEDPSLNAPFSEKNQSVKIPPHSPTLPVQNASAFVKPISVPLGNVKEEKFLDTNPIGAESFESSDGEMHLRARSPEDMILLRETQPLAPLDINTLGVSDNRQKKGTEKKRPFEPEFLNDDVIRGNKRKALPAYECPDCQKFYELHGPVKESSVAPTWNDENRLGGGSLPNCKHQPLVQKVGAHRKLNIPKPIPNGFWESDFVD

B1: Ctp1_(1–60) (domain or fragment, S. pombe, UniProt O74986 1-60, looked up)
chain: MNEEEHNKSVHWSIVYRQLGNLLEQYEVEIARLKSQLVLEKKLRIQVEKELESVKTKQIS
In the case of B1, the “stoichiometry N” value (SEC-MALS [1]) is reported as 4.

B2: MBP-Ctp1_(1–60) (domain or fragment, S. pombe, UniProt O74986 1-60, looked up)
chain: MNEEEHNKSVHWSIVYRQLGNLLEQYEVEIARLKSQLVLEKKLRIQVEKELESVKTKQIS
B2 was tested, and the “stoichiometry N” value (SEC-MALS [2]) was 4.

B3: full-length S. pombe Ctp1 (natural protein, UniProt O74986 1-294, looked up)
chain: MNEEEHNKSVHWSIVYRQLGNLLEQYEVEIARLKSQLVLEKKLRIQVEKELESVKTKQISSSASSKVSSNTIQELDSTTDEDEIPGSDTVDEEDPSLNAPFSEKNQSVKIPPHSPTLPVQNASAFVKPISVPLGNVKEEKFLDTNPIGAESFESSDGEMHLRARSPEDMILLRETQPLAPLDINTLGVSDNRQKKGTEKKRPFEPEFLNDDVIRGNKRKALPAYECPDCQKFYELHGPVKESSVAPTWNDENRLGGGSLPNCKHQPLVQKVGRHRKLNIPKPIPNGFWESDFVD
With B3 the “stoichiometry N” value (SEC-MALS [1]) was 4.

B4: Ctp1 R32A K41A (natural protein, S. pombe, UniProt O74986 1-294, looked up)
chain: MNEEEHNKSVHWSIVYRQLGNLLEQYEVEIAALKSQLVLEAKLRIQVEKELESVKTKQISSSASSKVSSNTIQELDSTTDEDEIPGSDTVDEEDPSLNAPFSEKNQSVKIPPHSPTLPVQNASAFVKPISVPLGNVKEEKFLDTNPIGAESFESSDGEMHLRARSPEDMILLRETQPLAPLDINTLGVSDNRQKKGTEKKRPFEPEFLNDDVIRGNKRKALPAYECPDCQKFYELHGPVKESSVAPTWNDENRLGGGSLPNCKHQPLVQKVGRHRKLNIPKPIPNGFWESDFVD
B4: binds (SEC-MALS [3]).

B5: 39 bp dsDNA (39bpf/39bpr) (dsDNA)
DNA 1: CAGAGTCATAATATGCAGGTGCAGGTTATTCATGCTCGG
DNA 2: CCGAGCATGAATAACCTGCACCTGCATATTATGACTCTG
B5: no binding (Ctp1 1-150); no binding (Ctp1 151-294).

B6: Ctp1_(5–60)-L51M (domain or fragment, S. pombe, UniProt O74986 5-60, looked up)
chain: EHNKSVHWSIVYRQLGNLLEQYEVEIARLKSQLVLEKKLRIQVEKEMESVKTKQIS
B6: binds (crystal structure).

In the case of VYRQLGNLLEQYEVEIARLKSQLVLEKKLRIQVEKELESVKTKQIS (domain or fragment, S. pombe, UniProt O74986 15-60, looked up) [MBP-Ctp1_(15–60)], the “stoichiometry N” value (SEC-MALS [2]) is reported as 2.

B7: fork (ssDNA/splay) (mixed)
DNA 1: GCAGGAGGTGGCGTCGGGTGGACGGGTGGATTGAAATTTAGGCTGGCACGGTCT
DNA 2: AGACCGTGCCAGCCTAAATTTCAATCCAAGGTCTCGACTAACTCTAGTCGTTGT
Work on B7 yielded a Kd (Ctp1 61-294) of 1000 nM.

B8: ssDNA 54 nt (ssDNA)
DNA: GCAGGAGGTGGCGTCGGGTGGACGGGTGGATTGAAATTTAGGCTGGCACGGTCT
B8: binds (Ctp1 WT).

B9: 54 bp dsDNA (dsDNA)
DNA 1: GCAGGAGGTGGCGTCGGGTGGACGGGTGGATTGAAATTTAGGCTGGCACGGTCT
DNA 2: AGACCGTGCCAGCCTAAATTTCAATCCACCCGTCCACCCGACGCCACCTCCTGC
B9: no binding (Ctp1 K276A); no binding (Ctp1 K231A); no binding (Ctp1 K219A). B9: no binding (Ctp1 R275A); no binding (Ctp1 R273A).
